{"source": "patent US20110306546A1", "about": "“COMPOSITIONS FOR INCREASING HAIR GROWTH AND DECREASING HAIR LOSS” (ALVI ARMANI GENOMICS INC., priority 2010, published 2011)", "molecules": {"B1": {"name": "FGF10: FGF-10, also known as keratinocyte growth factor (KGF2) (protein, UniProt O15520 38-208, looked up)", "Fibroblast growth factor 10": "QALGQDMVSPEATNSSSSSFSSPSSAGRHVRSYNHLQGDVRWRKLFSFTKYFLKIEKNGKVSGTKKENCPYSILEITSVEIGVVAVKAINSNYYLAMNKKGKLYGSKEFNNDCKLKERIEENGYNTYASFNWQHNGRQMYVALNGKGAPRRGQKTRRKNTSAHFLPMVVHS"}, "B2": {"name": "BMP-6: bone morphogenesis protein-6 (protein, UniProt P22004 375-513, looked up)", "Bone morphogenetic protein 6": "SASSRRRQQSRNRSTQSQDVARVSSASDYNSSELKTACRKHELYVSFQDLGWQDWIIAPKGYAANYCDGECSFPLNAHMNATNHAIVQTLVHLMNPEYVPKPCCAPTKLNAISVLYFDDNSNVILKKYRNMVVRACGCH"}, "B3": {"name": "Wnt: Wnt-3a growth factor (protein, UniProt P56704 19-352, looked up)", "Protein Wnt-3a": "SYPIWWSLAVGPQYSSLGSQPILCASIPGLVPKQLRFCRNYVEIMPSVAEGIKIGIQECQHQFRGRRWNCTTVHDSLAIFGPVLDKATRESAFVHAIASAGVAFAVTRSCAEGTAAICGCSSRHQGSPGKGWKWGGCSEDIEFGGMVSREFADARENRPDARSAMNRHNNEAGRQAIASHMHLKCKCHGLSGSCEVKTCWWSQPDFRAIGDFLKDKYDSASEMVVEKHRESRGWVETLRPRYTYFKVPTERDLVYYEASPNFCEPNPETGSFGTRDRTCNVSSHGIDGCDLLCCGRGHNARAERRREKCRCVFHWCCYVSCQECTRVYDVHTCK"}, "B4": {"name": "Nog: secreted polypeptide noggin, binds and inactivates TGF-beta superfamily signaling proteins (protein, UniProt Q13253 28-232, looked up)", "Noggin": "QHYLHIRPAPSDNLPLVDLIEHPDPIFDPKEKDLNETLLRSLLGGHYDPGFMATSPPEDRPGGGGGAAGGAEDLAELDQLLRQRPSGAMPSEIKGLEFSEGLAQGKKQRLSKKLRRKLQMWLWSQTFCPVLYAWNDLGSRFWPRYVKVGSCFSKRSCSVPEGMVCKPSKSVHLTVLRWRCQRRGGQRCGWIPIQYPIISECKCSC"}, "B5": {"name": "Eph: member of the Ephrin family, binds to the Eph receptor (protein, UniProt P52797 23-214, looked up)", "Ephrin-A3": "QGPGGALGNRHAVYWNSSNQHLRREGYTVQVNVNDYLDIYCPHYNSSGVGPGAGPGPGGGAEQYVLYMVSRNGYRTCNASQGFKRWECNRPHAPHSPIKFSEKFQRYSAFSLGYEFHAGHEYYYISTPTHNLHWKCLRMKVFVCCASTSHSGEKPVPTLPQFTMGPNVKINVLEDFEGENPQVPKLEKSISG"}}}
{"test_system": "Hair follicles (HF)", "experiment": "Hair follicle (HF) explant growth assay", "format": "cell-based, human", "details": "HF elongation after 7-8 days; 20 ng/ml of each growth factor, hypoxanthine 2 μM; mean of 6-8 independent experiments", "experimental": "Hair follicles (HF) were extracted from the occipital area of 6-8 individuals with hair loss. The HFs were processed to equivalent lengths and cultured in William's E medium supplemented with 100 units/ml penicillin G, 100 μg/ml streptomycin, 0.25 μg/ml amphotericin B, […], 1 ng/ml hydrocortisone; basic medium or control medium or basic medium supplemented with 20 ng/ml of each of IGF-1, FGF-2, PDGF, Wnt-3A (Wnt), Noggin (Nog), Ephrin A3 (Eph), SHH and BMP-6 as well as hypoxanthine (Hyx) at 2 μM final concentration. The “GF10 cocktail” or “GF10” includes all nine growth factors and hypoxanthine while the “GF7 cocktail” or “GF7” contains six growth factors (all growth factors of GF10 except for FGF-10, Eph and SHH) and hypoxanthine. Growth promotion was measured as elongation of the HF at the end of 7-8 days. All growth factors and hypoxanthine promoted growth individually and in combination (FIG. 1 and Table 1).", "units": {"Increase in growth (% control) Mean": "% control"}}
{"molecule": "B1", "Increase in growth (% control) Mean": 48.55}
{"molecule": "B2", "Increase in growth (% control) Mean": 46.44}
{"molecule": "B3", "Increase in growth (% control) Mean": 104.817}
{"molecule": "B4", "Increase in growth (% control) Mean": 51.45}
{"molecule": "B5", "Increase in growth (% control) Mean": 57.61}
